Experiments:
[1] = cell-surface flow cytometry, MDA-MB-231
[2] = cell-surface flow cytometry, MCF-7
[3] = glycan lost, control: WT-PD-L1 MDA cells
[4] = glycan lost, control: WT-PD-L1 MCF-7 cells

Row | Substance | expression_or_secretion [1, 3] | expression_or_secretion [2, 4] | expression_or_secretion ([1]; glycan changed form, control: vehicle-treated WT-PD-L1 MDA cells) | expression_or_secretion ([2]; glycan changed form, control: vehicle-treated WT-PD-L1 MCF-7 cells)
1 | PD-L1: N35A-PD-L1 | no change | no change | – | –
2 | PD-L1: N192A-PD-L1 | no change | no change | – | –
3 | PD-L1: N200A-PD-L1 | no change | no change | – | –
4 | PD-L1: N219A-PD-L1 | no change | no change | – | –
5 | PD-L1: kifunensine | – | – | no change | no change

Source: PMC10571791
